Test results reported in patent publication US8153424B2, “Method of in vitro differentiation of neural stem cells, motor neurons and dopamine neurons from primate embryonic stem cells” (Wisconsin Alumni Research Foundation, priority 2001, dated 2012).

Test system: hESC-derived neuroectodermal cells
Test: Midbrain regionalization and DA neuron differentiation, immunocytochemistry and cell counting
Type: cell-based, human
Conditions: FGF8 100 ng/ml applied at day nine for six days, expanded in FGF8 four days, then SHH six days
Method: Differentiation and enrichment of neuroectodermal cells. hESC colonies were detached from MEF layer by the treatment of the culture with 0.2 mg/ml of dispase (Roche Diagnostics) and grown as floating cell aggregates (embryoid body) for four days with a daily change of ESC medium. They were then grown in an adherent substrate in a neural medium consisting of DMEM/F12 (2:1), supplemented with N2 (Gibco), 0.1 mM non-essential amino acids, 2 μg/ml heparin with a medium change every other day. The ESC aggregates attached and formed individual colonies at around day six. […] The neural rosettes were isolated through differential enzymatic response (Zhang et al., supra, 2001). Growth factors were added during the course of differentiation to influence regionalization (see results).
DA neuron differentiation. The enriched neuroectodermal cells were dissociated by 0.025% trypsin and 0.27 mM EDTA in PBS at 37° C. for 10-15 minutes and plated onto 12-mm coverslips (pre-coated with 100 μg/ml polyornithine and 10 μg/ml laminin) at a density of 40,000-50,000 cells/coverslip. […]
Immunocytochemistry and cell quantification. […] Staining was visualized with a Nikon fluorescence microscope. […] The cells in ten visual fields were randomly selected and counted from each coverslip.

B1: FGF8: fibroblast growth factor 8 (protein, UniProt P55075 23-233, looked up)
Fibroblast growth factor 8: QEGPGRGPALGRELASLFRAGREPQGVSQQHVREQSLVTDQLSRRLIRTYQLYSRTSGKHVQVLANKRINAMAEDGDPFAKLIVETDTFGSRVRVRGAETGLYICMNKKGKLIAKSNGKGKDCVFTEIVLENNYTALQNAKYEGWYMAFTRKGRPRKGSKTRQHQREVHFMKRLPRGHHTTEQSLRFEFLNYPPFTRSLRGSQRTWAPEPR
En-1 expression in nestin-expressing neuroectodermal cells: En-1 expression was observed
